Sequences and labels used below:
B1: 抗IL13Ra2纳米抗体VHH-7 (VHH-mIgG2a Fc) (Fc fusion)
chain: QVQLVESGGGLAHPGGRLRVTCTASGANLKNYAVGWFRQRPGKQREEVACLRVRYANTNKAPSVRERVHVFREENNNLVYMLMSDLTPEDTGIYYCAARPQQPSADCSLLANDYDNWGQGIQVTVSE
notes: not shown: mouse IgG2a Fc tag from vector C-4pCP.Stuffer-mCg2a-FC
B2: 抗IL13Ra2纳米抗体VHH-1 (VHH-mIgG2a Fc) (Fc fusion)
chain: QVQLVESGGGLVQPGGSLRLSCAASGFTLDYYAIAWFRQAPGKRREGVSCISSSEGSTNYADSVKGRFTISRDNAKNTVYLQMNSLKPEDTAVYYCAADSTGRCWARPLYEYDYRGQGTQVTVSS
notes: as for B1
B3: 抗IL13Ra2纳米抗体VHH-13 (VHH-mIgG2a Fc) (Fc fusion)
chain: QVQLVESGGGSVQAGGSLRLSCTSSRFTLDYYAIAWFRQAPGKRREGVSCISSSEGSTNYADSVKGRFTISRDNAKNTVYLQMNSLKPEDTAVYYCAADSTGRCWARPLYEYDYRGQGTQVTVSS
notes: as for B1

For 3 molecules, Kd, koff and kon results are on record in CN114409782A (HUAI SHANGHAI BIOMEDICINE LTD COMPANY, dated 2022).

A word on the Kd: it is a measure of binding affinity in units of concentration. The low end stands for a tighter complex, the high end for a looser complex. Usually koff stands for a measure of how fast the partners let go of each other. A high value points to fast dissociation. In general, kon refers to a measure of how fast the partners come together. High values mean faster complex formation, low ones slower complex formation.

This experiment concerns the target T1, IL13Ra2抗原 (in solution, Biacore) (UniProt Q14627 27-343, limits assumed).
T1 construct: also called IL13Rα2; 白介素13受体α2
T1 sequence (looked up): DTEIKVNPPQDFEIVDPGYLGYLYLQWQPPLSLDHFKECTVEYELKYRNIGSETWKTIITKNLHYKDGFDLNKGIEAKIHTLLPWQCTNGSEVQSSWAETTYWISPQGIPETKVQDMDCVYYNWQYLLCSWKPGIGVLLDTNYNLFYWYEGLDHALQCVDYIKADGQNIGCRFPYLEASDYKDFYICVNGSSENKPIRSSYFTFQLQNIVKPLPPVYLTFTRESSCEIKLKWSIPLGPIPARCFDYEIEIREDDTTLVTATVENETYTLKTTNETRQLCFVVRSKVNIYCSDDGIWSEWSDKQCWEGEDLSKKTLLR
Put plainly: SPR (Biacore), antibody fixed on chip, IL13Ra2 in solution. (SPR reads the build-up and loss of mass on a sensor chip optically.)
Take B1: binding was put at a Kd of 32.4 nM, the dissociation rate constant (koff) is 0.00066 s⁻¹ and the kon was 65400 M⁻¹ s⁻¹.
For B2 the same measures were 16.1 nM, 0.00156 s⁻¹ and 55300 M⁻¹ s⁻¹.
In turn, B3 came in with an equilibrium dissociation constant (Kd) of 16.6 nM, an off-rate (koff) of 0.00433 s⁻¹ and a kon of 68300 M⁻¹ s⁻¹.
